Test: soluble on expression in E. coli; label from the status in PepcDB or PDB records

Soluble on expression in E. coli, soluble:
GSHMTNVTGDYTDCTPLLGDRAALDSFYEEHGYLFLRNVLDRDLVKTVAEQMREGLVALGAADPHATLEELTIDSFESVDEVAMHDYVKYDAFWNNPSTIKVFEQVFGEPVFVFLSTTIRYYPSQAGSEEPSFHYLTPFHQDGFYIGPNQDFRTFWIPLIRTTRESGGVALADGSHRRGKRDHVLNESFRRFGHPVRGIPPTEVSEDEHLLHSPMEPGDILLFHAHMCHKSIPNLSKDPRLMRMSMDTRVQPAKSHRGFNAMTPWTESAKDASKGIMAKITGTPTDVE, SGKTSQRKQCDCENPSKPCLSTSIPLRMSSYTFKRPVTKITSHLGNEVRYYQWEETFKKPEQACWQKRLQGLQAYSSAGELLSTSDLAKTLKDLTSTDTVASASDTQAASIDITSVPTLESSSHLANMIPEAGPQILCKEFLVTEQDIINQERKVKIARERLAVALIAHKLASEMETVRGSRKANL, SYSVGQVAGFAGVTVRTLHHYDDIGLLVPSERSHAGHRRYSDADLDRLQQILFYRELGFPLDEVAALLDDPAADPRAHLRRQHELLSARIGKLQKMAAAVEQAMEARS, MTTDERKLFNHLKSPHLKYWVPFIWFGNLATKARNEGRIRDSVDLQSLMTEMNRYRSWCSLLFGYDWVGIPLVYTQVAEQLINPFGEDDDDFETNWCIDRNLQVSLLAVDEMHMSLPKMKKDIYWDDSAARPPYTLAAADYCIPSFLGSTVQMGLSGSDFPDEEWLWDYEKHGHRHSMIRRVKRFLSAHEHPSSPRRRSYRRQTSDSSMFLPRDDLSPARDLLDVPSRNPPRASPTWKKSCFPEGSPTLHFSMGELSTIRETSQTSTL, MKFGWIKTTGNDLEERMESVKDALESSIPGIIAEKEEISSVRELGNIKIVSDNLDADVVLINKGEDLEILKSAKLSGKETGVYVVINTKEDEVYATDVSKLDFVDYVVLEGSDWTIIPLENIIADLFSEEIKIVSVVTNVKDAEAAYEILEKGVDGVVLIPKDINEVKDFSKLIERMNSESVKLDYATVTKIEPVGSGDRVCIDTCSMMEMGEGMLIGSYSRGMFLVHSETVENPYVATRPFRVNAGPVHAYILCPENKTKYLSDLKAGDKVLVVNKNGETREAIIGRVKIEKRPLFLVEAEYNGENLRTILQNAETIRLVGEDGKPVSVVDLKVGTKVLIKPDENARHFGMAIKETIIEKLEHHHHHH, GEETRTEVEKKNYMNNAEEAKDVLLGVYRTNTLDAMYGYYLSILFNLGTDISQVEGSGNENFRIIPTNSFPTTQSEVQQTWAALYTGIYRANDFLERISNKIGSYTTTDKKLATLYIAEARALRGMFYFELVRRFGNVVLMTSTQMSNQNPATYVQSAPEKVYEYIEDDLLYACDILPYATDDQYRESNDYRFSKGAALGLLTKVYATWAGYPVKDESKWEAAAKTARILVESGKHGLLKDYEQLWKNTCNGTWDPTESLIEISFYSPTVSGNSDPVGRIGKWNGVKTTAIAGVRGSCAANVKVVHTFVLDWREDVSDIRRDLSIANYQYTDTKKSLWVAGASDTDESAAEKDADPTKAQKNKQNYTPAKWDIQKYVTTNSFINNDKSNVNWYFLRYADVLLLYAEALNEWKHGPDAEAYNAINAVRRRGYGNPSNTSACDLPQGLDETSFREAVRKERSYELSFEGHRRQDLIRWGIYYKTVQATAKELGYWWEGTGSPNYSVATYTEEGKHELFPIPQRDMDLCIQFNQNPKW

Soluble on expression in E. coli, not soluble:
MGSDKIHHHHHHMKITVLYSGNYGERVLNTILEKFAQNIVSIHEIPENLPEYIDDVSEYVPENLKESDLIISVGLFGDINLIVCDIAKKTNAKSIIIESHSPKQVTKGLKSEISDSLNEIKIVFPKPFCSLKPVGDTYIDEFAKYFGSPEIEIIGETIVKSVIVKRNAPCGSTKYVAENLTGYSLNEVEFESGNKLHNYPCLASMDVDNEIGDTILHLAGYKIKEAVKKSLKFSNKILTVTGDCKGFECGFKCYKICPVVKMGENAVEIEKTHVNINNLFCGCCMKCVDICPFNAIKVLNYKI, MIRRAVVAGQFYPDDAELVEMLKRFFTDLGEEGNSRRITAGVAPHAGYIFSGYTASRTYKAIYEDGLPEVFVILGPNHTGLGSPIAVYPKGEWETPLGRIKVDEKLARRITELSEIADLDDLAHKYEHSIEVQLPFIQYLAELSGKDVKIVPITLGIQDEEVSYALGKAIYEASQELGRDIVVIASTDFMHYGEFYGYVPFRARADELPNLVKEWDMRVIRRILDFDVEGMFEEINAMNHTMCGPGGVGVGIVYSKLAGAIEAELLHYTTSFEVSRSTDAIVGYASIVMRKALEHHHHHH, MKTIIREMVETIKQLFAQKQQMQEPVVANYEVSEIVEQKTLKKKEESEKTGEKTGKSNKWSQSLTLQLKEYLNDNFDFRYNNLTGATEYREKSGKNCFRPIDEREMNGMIVDARLEGIPCWRGDVPTMVLSNKVESYNPFHLYVKELPGWDGVDRVTPLLLRVSDNEIWLRGGRCWLRAMLSQWSGEERLHANVLTPVLISGKQGLSKSTFCRLLMPDSLRHYFIDNLNLAAGSSPEKKLVKNGLINLDEFDKIKESQQATLKNLLQMVNVPVFRGKRLGWVNESRLASFIATTNVYQVLIDSTGSRRFLCVEVLKPISEEPLEHKQIYAQLKEELKSGAPDYLNKEEEKALQKHNKAYYRQSLLEDVFHCCFRHPLETEKGIWLTTAEIFQVMRKFNSAALKEVSARQLGLKLSAMGYMAKHTSFGNRYYVFNLSAEKKDASL, MSLPGFEISAQFRFLLSVTALLVREEFGRAPSLGQTQSLLQNGFSSAVVEKVNQNLVSHLNVLDGLQPFMGRPRLHPEGPKDASRRIGPGDQEVKKLSPAMPSEQGEDYWNLLVEFPDSLSISEATLKIVTYHYFSMAGNNKFDGDKTRMGAPGIRFPGKGYAATEHIWIREGSSLLRSLLTSLPTSWVKGEGLPAWADRTAQKSRTGQQQFHALWEATWSSNTVVSYWEDGYLTGVRVGGIPPAWWPDIPNTKEGEKALKLWWDQRNEKDPLYFYLKNKKGEPKAQRIDFGRDGIDLAVEWAAEAKMMDLVEKTYKNVLPVDSYPTVDGDDEGIDKYQLVFFRHQVEGTASSPSIRASEVFLADRSVWAFDLSCDEQLRLRDNAQLVRDVYITLLGVFRRKSAADASREVATGWGAAVLDSLAVSQSDASDAYWRGVTDVYQKYLADLRVGEEITEELYRGIRSAALEAYDEVTAPYLAQYANEIYYVRASLVRSVNSKINTARDEGIGRIKEESNE, MGSDKIHHHHHHMPNSYTHYHDENVTDPHLRATGAISVLPLGAHEQHGPHLPFETDTLIAAGIVSRLAAVLPAHLPVSFLPVEPVGYSIEHMDVPGTKTLCYDEAIERWLGIAEAEYEKGVRKFVMLNAHGGNSPLMTIVATEARARFGMLAVATSWTRFGVPADIVKPQDKAVDIHGGDIETSVMLALHPERVVMEKAANFPSRQSDFSQRFSHLRAYGPHAFGWLMSDLNPDGVAGNAAAASAGKGERLISHAVNGLLELLEDVHAFDITLFHNKI, MGSDKIHHHHHHMYLEAFTSHFNSIADSRQSAKVTYPLHDVLFVTLCGVIAGAEGWSEIHDYAAGHHTWFKEKGILTEGVPVDDTIARIISRIEPEQFRLCFANWMRAVHEMSDGHLIAIDGKTLRASYNREDRRSTIHMVNAFACANKVVLGQVKTANKSNEITAIPALLQLLDIEGALVSIDAMGCQTEIARQIVEQGGDYLLAVKVNQSSLHEAVVSAFSEARSNPLDGLVIEKNRGRIEARAYYVIPANQLQDNFPKWMKLNTLGMCLSYRHTKGKEAELTYRYYISSATLDEQLLANSVRGHWGIENSLHWVLDVSMKEDSCQIYQHHGAENWAMLRHISLNMLRAEPSKGSIPAKQKRAWMKPEYLESVLLAGLQLDEF, MNHFELYKLKKAGLTNKNILNILDYQKHQEKSLSLRDMAVVSGCKHPSHFIEAYKQLDIQNLKMEFKQFPSISILDKHYPMALKEIYNPPVLLFFQGNLDLLEKPKLAIVGSRRSSDTGVKSVRKILKELGNRFVIVSGLARGIDTSAHLACLKNGGQTIAIIGTGLDRFYPKENRELQTFLGKNHLVLTEYGPGEEALSYHFPERNRIIAGLSRGILVVEAKNRSGSLITCQIGIEEGRDIFAVPGNILDGKSEGCLQLIKEGATCVTSGMDILSEY, MGSDKIHHHHHHMITDPQIKACIHQHHLFSALGEEELCRLLGQAAKITLAAHENLFYQGDLAKRFYLVIQGHLQLYRTSLQGQDKVIEVVREGRTFAEALMFSRQASYPVSAQAVSHCTLVSFDSEGYLAMLRGNPDACIAIMAEMSVRLRKDINEVELLSVQNAQSRLLLFLLRNMQKIGDNQGRVELDIPKRVLASRLSIQPETFSRLMKKMVTEGIIGESRGAIDIKDLAKLYTSANMPLANQAIQTSEPLIRSGKAPCQQIAIEMV, MSSRIEQIIEEIEEYIDKDCKFQPLSSTKIIVNKEHLDELLRELRMKTPDEIKRYQKIISNRDAILADAKAKADAMIEEAQVQTTELVSEHEIMQQAYAQANEIVTQATAQAQEIIDNATMDANEIRMGAIQYTDDLLANAESIIGHTLDSYTTKYDGLINSLQECYDVVRTNRAELESPTPEEGQEFSGEA, RHQVESSPLFRALALRCNQTMVTLRSANMFHAYGFLAKVFEILAKHKISVDLITTSEISVSLTLDQTDTSGGAPQLPQAAREELEELCKVEVEHDLCLVALIGNKMSERKGYAKQVFGTLEDLNLRMICYGASPHNLCFLVNESVAKQAIQKLHTELFEQ, MYRFCVALTPSTSEDEQVVRKSEKPASKPPTPEVEDCTFSEKNNDQRKIEKETESEESSNLKFPPARPSIRNATNFRRIICISESDSGKEEPVVKKEVLKTNKLRISETKPEYPPELLQLEARLQELRAGRKNKQGRINRKFVAKPCGVVSGETPQRPFLEEMYYFNPQETGTASEIFDMLFPAKDTPNFRPWLDGHFSAPDLQFKQIEKQRQTKLHSYTGTTLQEKKRKKRKKILKSIQEILWLLHFQKHDDFLESTSRLTIKNFSCHFDEHQRLKLLRNNDLSLICNYQIGSENTPIFNQRSTDCMLRPVFIDGLSFMDMLIPISSSLPIISTRSLLEILLNFILDGCQTVIYLPDYYNDTTNQKVDDSTIFQFLCNSKLIQFVDGRSRRAVERQVLLEAEKVHGVFVSSAEEFLTRNAIQCFPVINRYSKRLDEFLICTVFLVNNLPKKILAQDFVEESRVLKPEGSSSAVSSTTVLEESHQKISGAMEDSEDEPADPQTLKQEYLIKEECSEISEDSEEGAIVDVASSSGDLSENRDQKSENEEFEYSPHQLTLEQQTYLISSMAQLSIFHFQRYRQIRVFLMIIKRYVPELLPSFMQKTRMDDVAMAIQDIQNGKDLLYWPIFSKIDN, MGSDKIHHHHHHMIDSMTHRKLSNTAQRPSPTRPRHGANATWRMLSVSALMLAMASTATWASDVKSQQTQAADIARNMANNTDTCYVEGVSDRLNCGFVTVPENPNKPDGKQIQVHYVVLPAVKNVNHEEALLAIAGGPGQSAIDNAAGFDAMLSKVRQQRDILLIDQRGTGRSNLLTCDEGAQSPLSFDDDNADTLAETQKCLAKIDADVTQYGSLNAIKDFEAVRQHLGYKKLHIYGISYGTRMAQLYMRLYPAHLATVTLDGIVPMQQSVLEIGASIDRGFDLLFKDCQETTACHAQFPELKAEFDQVAASLAKAPVMENVYDPVTGEKTMLTMTRGKFYGSIRMALYQANVRALVPHAIHQAAKHNFQPILGLYSLTTDNAGMAMGMHASVVCGEDMPRITPAMREQAQHSFMGKTMLEGLEATCEVWKVPAVDDSFSEPISSDIPTLLLSGEIDPATPPSWGELAMEKLTNAKHFVAPYATHGVAYQSCANNLIADLVRSGSVKDLDGECLKKDVRRSFYLNASSVEPLDATSTKTTDDNASTGAKE
